Here are results for 8 compounds from patent US8629241B2, “Alpha helical mimics, their uses and methods for their production” (The University of Queensland, priority 2004, dated 2014).

The conditions of series [1]: phase III; patients at risk of abrupt vessel closure after coronary angioplasty; cited from earlier work.
The format of series [2] is physicochemical. To be noted: for [θ]207: molar elipticity at 207 nm. On the procedure: Circular Dichroism (CD) was performed on peptides having SEQ ID NOs: 8 to 14 and 18 to 31, using methods described above. The molar elipticities at 222 nm, 208 nm and 190 nm, ratios of elipticities at 222 nm/208 nm and relative helicity are shown in Tables 6 and 7.
Assuming that mean alpha helix content (fH) is linearly related to elipticity at 222 nm, or in our case 215 nm ([θ]obs215), then the equation for calculating helix content is: fH=([θ]obs215−[θ]C)/([θ]∞215−[θ]C) (1) Luo and Baldwin^22 determined that the random coil ([θ]C) and infinite alpha helix ([θ]∞222) molar elipticities are temperature dependent based on the equations: [θ]C=2220−53T (2a) [θ]∞215=(−44000+250T)(1−k/Np) (2b) where T is temperature in degrees Celsius, Np is the number of peptide units, and k is a finite length correction.
CD was performed on peptides having one [SEQ ID NO: 8] or more than one modular macrocycle [SEQ ID NOs: 46 and 47], as compared with corresponding linear peptides, Ac[KARAD]n—NH2 where n=1 [SEQ ID NO: 14], n=2 [SEQ ID NO: 54] and n=3 [SEQ ID NO: 55]. The molar elipticities at 222 nm, 208 nm and 190 nm, ratios of elipticities at 222 nm/208 nm and percentage helicity are shown in Table 8.
CD experiments were performed on a Jasco Model J-710 spectropolarimeter which was routinely calibrated with (1S)-(+)-10-camphorsulfonic acid. Temperature control was achieved using a Neslab RTE-111 circulating water bath. Spectra were recorded in a 0.1 cm Jasco cell between 310-185 nm at 50 nm/min with a band width of 1.0 nm, response time of 2 sec, resolution step width of 0.1 nm and sensitivity of 20, 50 or 100 mdeg. Each spectrum represents the average of 5 scans with smoothing to reduce noise. Peptide samples for CD spectroscopy were dissolved in distilled water (˜1 mg/mL). Each stock solution was diluted to a final concentration of 50 μM in 10 mM sodium phosphate buffer (pH7.4), with or without additives (2,2,2-trifluoroethanol (TFE) or guanidine.HCl). Guanidine.HCl denaturation experiments were performed according to Creighton^105.
1D ^1H NMR spectra were then recorded with presaturation and a relaxation delay (d1) of 30 seconds to allow for full relaxation of peptide and DSS^1H signals to facilitate accurate integration of proton signals with S/N>250:1. This method provides reproducible concentrations within ±2%.
CD data in ellipticity was converted to mean peptide ellipticity using the equation: [θ]=θ/(10×C×Np×1) where θ is the ellipticity in millidegrees, C is the peptide molar concentration (M), 1 is the cell path length (cm), and Np is the number of peptide units (ie. pentapeptides […], 10 & 11 Np=5, 12 Np=4.)
Relative helicities were employed to allow scaling of compounds by dividing the [θ]obs215(8)/[θ]obs215(x) for pentapeptides, and [θ]obs215(24)/[θ]obs215(x) for hexapeptides.

For series [3], the system named is trypsin. Kind of series: Proteolytic stability of the helix, trypsin digestion (Example 10). Format: in vitro ADME. To be noted: pH 8.2, room temperature, 1 to 155 minutes. How it is done: A standard solution of Ac—KARAD-NH2 and Ac—(cyclo-1,5)-KARAD-NH2 (1 mg/mL) was prepared in 100 mM ammonium carbonate buffer at pH˜8.2. To 100 μL of each solution was added 1 mg/mL of trypsin (1 μL). The digest was conducted at room temperature with 5 μL aliquots taken at 1, 4, 8, 28, 48, 55, 110, 155 minutes. Aliquots were diluted with 5 μL of 3% TFA to stop the reaction. and analyzed by LC-MS using 2.1×150 mm Phenomenex 300 Å C18 5 μm column, with a 3% per minute linear gradient of 0-60% acetonitrile over 20 minutes. The amount of starting material left in each sample was quantified by determination of total ion counts for the molecular ion.
Compound of SEQ ID NO 8 and its acyclic version SEQ ID NO: 14 were incubated with trypsin (pH 8.2), aliquots removed at intervals between 1 and 155 minutes, and analyzed by LCMS. […] Similarly the cyclic compound 8 was not degraded by human serum (1 h, 37° C.). […] This is consistent with other observations that only an extended or linear peptide conformation is recognized, not only by trypsin, but by all proteolytic enzymes^125 Presumably the cycle is too tightly locked into an alpha helical turn to permit significant unwinding to the extended format needed for recognition by trypsin.

Series [4] addresses thrombin (Homo sapiens, UniProt P00734). To be noted: cited from earlier work.
Series [5] deals with trypsin. To be noted: cited from earlier work.
Where [6] appears, read: Table 8, one or more cyclic pentapeptide modules versus linear peptides.
The mark [7] stands for this setting: [θ]215 relative to SEQ ID NO: 8, 10 mM phosphate buffer, pH 7.4, 25° C.
The mark [8] stands for this setting: molar elipticity at 190 nm, 10 mM phosphate buffer, pH 7.4, 25° C.
[9] abbreviates: 10 mM phosphate buffer, pH 7.4, 25° C.
Setting [10] is: molar elipticity at 215 nm, 10 mM phosphate buffer, pH 7.4, 25° C.
The mark [11] stands for this setting: ratio of elipticities, 10 mM phosphate buffer, pH 7.4, 25° C.
The mark [12] stands for this setting: cyclic hexapeptides 23-31, 10 mM phosphate buffer pH 7.4 at 25° C.

Like-named read-outs stand apart in the source and are kept apart here. Where a SMILES comes first, the peptide text is derived from it. Bridges are numbered along the chain shown (N, C = ends). [ ]: non-standard residue; d: D form. hArg = N=C(N)NCCCC[C@H](N)C(=O)O; Mpa = O=C(O)CCS

For `N=C(N)NCCCC[C@@H]1NC(=O)CCSSC[C@@H](C(N)=O)NC(=O)[C@@H]2CCCN2C(=O)[C@H](Cc2c[nH]c3ccccc23)NC(=O)[C@H](CC(=O)O)NC(=O)CNC1=O` [eptifibatide] ([Mpa][hArg]GDWPC-NH2; disulfide 1-7), in series [1], the “incidence of cardiac events” value was “reduce the incidence of cardiac events”.
In series [2] (Table 8), `CC(=O)N[C@@H](CCCCN)C(=O)N[C@@H](C)C(=O)N[C@@H](CCCNC(=N)N)C(=O)N[C@@H](C)C(=O)N[C@@H](CC(=O)O)C(N)=O` [SEQ ID NO: 14, Ac-[KARAD]-NH2] (Ac-KARAD-NH2) gave a θ222/θ208 of 0.12. In addition, in series [2] (setting [6]), the “[θ]192” value was −14779 degcm^2dmol^−1residue^−1, the “[θ]208” value is on record as −5758 degcm^2dmol^−1residue^−1 and the “[θ]222” value is −732 degcm^2dmol^−1residue^−1. In addition, in series [2] (setting [7]), the Relative helicity was 0.04. Also, the “% helicity” value in series [2] (fH × 100, [θ∞H]222 = −44000, k = 2.6) was found to be 0.8%. Moreover, the “[θ]190” value in series [2] (setting [8]) was −7372 deg.cm^2.dmol^−1.residue^−1. For the same compound, the “[θ]207” value in series [2] (setting [9]) was −5555 deg.cm^2.dmol^−1.residue^−1. Also, the “[θ]215” value in series [2] (setting [10]) is −524 deg.cm^2.dmol^−1.residue^−1. In addition, in series [2] (setting [11]), the θ215/θ207 came to 0.09. For the same compound, the “stability to trypsin (starting material left, LCMS)” value in series [3] was “completely hydrolyzed within a few minutes”.
As for “Ac-(cyclo-1,5)-[KARAE]-NH2 (Ac-KARAE-NH2; lactam 1-5; SMILES CC(=O)N[C@H]1CCCCNC(=O)CC[C@@H](C(N)=O)NC(=O)[C@H](C)NC(=O)[C@H](CCCNC(=N)N)NC(=O)[C@H](C)NC1=O) [SEQ ID NO: 10]”, the Relative helicity in series [2] (setting [7]) turned out to be 0.08. Also, the “[θ]190” value in series [2] (setting [8]) is given as −10611 deg.cm^2.dmol^−1.residue^−1. For the same compound, the “[θ]207” value in series [2] (setting [9]) is reported as −3393 deg.cm^2.dmol^−1.residue^−1. Also, in series [2] (setting [10]), the “[θ]215” value is recorded as −1068 deg.cm^2.dmol^−1.residue^−1. Moreover, in series [2] (setting [11]), the θ215/θ207 is 0.31.
For the compound “Ac-(cyclo-1,5)-[DARAK]-NH2 (Ac-DARAK-NH2; lactam 1-5; SMILES CC(=O)N[C@H]1CC(=O)NCCCC[C@@H](C(N)=O)NC(=O)[C@H](C)NC(=O)[C@H](CCCNC(=N)N)NC(=O)[C@H](C)NC1=O) [SEQ ID NO: 9]”, the Relative helicity in series [2] (setting [7]) was found to be 0.60. For the same compound, in series [2] (setting [8]), the “[θ]190” value is recorded as 15600 deg.cm^2.dmol^−1.residue^−1. Further, the “[θ]207” value in series [2] (setting [9]) is reported as −10705 deg.cm^2.dmol^−1.residue^−1. Besides, in series [2] (setting [10]), the “[θ]215” value is given as −7723 deg.cm^2.dmol^−1.residue^−1. The θ215/θ207 in series [2] (setting [11]) came out at 0.72.
What is called Ki is a dissociation constant, usually derived from enzyme kinetics or from competition with a known ligand. Consider `N=C(N)NCCC[C@@H]1NC(=O)[C@@H]2CCCN2C(=O)[C@@H](NC=O)CNC(=O)/C=C/C(Cc2ccc(O)cc2)NC(=O)[C@@H](Cc2ccccc2)NC(=O)C1=O` (stereo partly shown) [Cyclotheonamide A], for which the Ki in series [4] was 180 nM; in series [5], 23 nM.
In the case of “Ac-(cyclo-1,5)-[KARAD]-OH (Ac-KARAD-OH; lactam 1-5; SMILES CC(=O)N[C@H]1CCCCNC(=O)C[C@@H](C(=O)O)NC(=O)[C@H](C)NC(=O)[C@H](CCCNC(=N)N)NC(=O)[C@H](C)NC1=O) [SEQ ID NO: 20]”, the Relative helicity is 0 in series [2] (setting [7]) and 0.06 in series [2] ([θ]215 relative to SEQ ID NO: 8, in 0.01 M HCl pH 2). Also, the “[θ]190” value in series [2] (setting [8]) is −13953 deg.cm^2.dmol^−1.residue^−1; in series [2] (molar elipticity at 190 nm, in 0.01 M HCl pH 2), −2659 deg.cm^2.dmol^−1.residue^−1. Further, the “[θ]207” value in series [2] (setting [9]) is given as −5643 deg.cm^2.dmol^−1.residue^−1; in series [2] (in 0.01 M HCl pH 2) it was −3195 deg.cm^2.dmol^−1.residue^−1. Besides, the “[θ]215” value in series [2] (setting [10]) is recorded as 207 deg.cm^2.dmol^−1.residue^−1; in series [2] (molar elipticity at 215 nm, in 0.01 M HCl pH 2) it was −625 deg.cm^2.dmol^−1.residue^−1. The θ215/θ207 is reported as −0.04 in series [2] (setting [11]) and 0.20 in series [2] (ratio of elipticities, in 0.01 M HCl pH 2).
“Ac-(cyclo-2,6)-R[KGGGD]-NH2 (Ac-RKGGGD-NH2; lactam 2-6; SMILES CC(=O)N[C@@H](CCCNC(=N)N)C(=O)N[C@H]1CCCCNC(=O)C[C@@H](C(N)=O)NC(=O)CNC(=O)CNC(=O)CNC1=O) [SEQ ID NO: 31]”: in series [2] (setting [12]), the “Molar ellipticity at 207 nm” value is recorded as −4868 deg.cm^2.dmol^−1.residue^−1, the “[θ]190” value was −1593 deg.cm^2.dmol^−1.residue^−1, the “[θ]215” value is reported as −2131 deg.cm^2.dmol^−1.residue^−1 and the θ215/θ207 stood at 0.44. Further, the “Relative helicity” value in series [2] (θ215 relative to SEQ ID NO: 24, 10 mM phosphate buffer pH 7.4 at 25° C) came out at 0.14.
For “H-(cyclo-1,5)-[KARAD]-NH2 (H-KARAD-NH2; lactam 1-5; SMILES C[C@@H]1NC(=O)[C@H](CCCNC(=N)N)NC(=O)[C@H](C)NC(=O)[C@@H](N)CCCCNC(=O)C[C@@H](C(N)=O)NC1=O) [SEQ ID NO: 21]”, the Relative helicity amounted to 0.06 in series [2] (setting [7]) and 0.2 in series [2] ([θ]215 relative to SEQ ID NO: 8, in 0.001 M NaOH pH 10). The “[θ]190” value in series [2] (setting [8]) was 1355 deg.cm^2.dmol^−1.residue^−1; in series [2] (molar elipticity at 190 nm, in 0.001 M NaOH pH 10) it was 8452 deg.cm^2.dmol^−1.residue^−1. Moreover, the “[θ]207” value in series [2] (setting [9]) is −2228 deg.cm^2.dmol^−1.residue^−1; in series [2] (in 0.001 M NaOH pH 10), −3327 deg.cm^2.dmol^−1.residue^−1. For the same compound, the “[θ]215” value was −812 deg.cm^2.dmol^−1.residue^−1 in series [2] (setting [10]) and −2590 deg.cm^2.dmol^−1.residue^−1 in series [2] (molar elipticity at 215 nm, in 0.001 M NaOH pH 10). The θ215/θ207 is 0.36 in series [2] (setting [11]) and 0.78 in series [2] (ratio of elipticities, in 0.001 M NaOH pH 10).
